This note sets out measurements from patent US20170015742A1 (published 2017).

Test [1] deals with PDGF-BB (UniProt P01127 82-190). The test is described as follows: SPR (Biacore), DVD-Ig captured by anti-human Fc, antigen in flow. How it is done:
(§1) For example, approximately 9000 RU of goat anti-human Fc specific polyclonal antibody (Thermo Fisher Scientific Inc., Rockford, Ill.) diluted in 10 mM sodium acetate (pH 4.5) is directly immobilized across a CM5 research grade biosensor chip using a standard amine coupling kit according to manufacturer's instructions and procedures at 25 μg/ml. Unreacted moieties on the biosensor surface were blocked with ethanolamine. For kinetic analysis, rate equations derived from the 1:1 Langmuir binding model were fitted simultaneously to multiple antigen injections (using global fit analysis) with the use of Scrubber 2 (BioLogic Software), Biacore Biaevaluation 4.0.1 software or Biacore T100 Evaluation software. Purified antibodies or DVD-Ig molecules were diluted in running buffer for capture across goat anti-human Fc reaction surfaces. Antibodies or DVD-Ig molecules to be captured as a ligand (1 μg/ml) were injected over reaction matrices at a flow rate of 10 μl/minute. During the assay, all measurements were referenced against the capture surface alone (i.e., with no captured antibody or DVD-Ig molecule). […] The equilibrium dissociation constant KD (M) of the reaction between antibodies and the target antigen was then calculated from the kinetic rate constants by the following formula: KD=Koff/Kₒₙ. Binding was recorded as a function of time and kinetic rate constants were calculated.
For orientation: Surface plasmon resonance follows binding to a sensor surface in real time, without labels.

The target in test [2] is VEGF-A (UniProt P15692-4 27-191, limits assumed). The test is described as above. How it is done: as §1
VEGF-A (UniProt P15692-4 27-191, limits assumed), sequence (P15692 other isoform, or with tags, fused parts or gaps limits assumed): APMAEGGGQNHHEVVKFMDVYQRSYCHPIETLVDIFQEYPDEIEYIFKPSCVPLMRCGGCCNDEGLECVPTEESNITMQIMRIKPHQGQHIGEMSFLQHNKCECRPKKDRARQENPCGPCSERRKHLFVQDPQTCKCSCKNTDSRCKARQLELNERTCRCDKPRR
For test [3], the target named is T1, VEGF-A (human, UniProt P15692 207-395).
T1 construct: also called hVEGF165
T1 sequence (P15692 other isoform, or with tags, fused parts or gaps limits assumed): as above
The test is described as follows: Biacore SPR; DVD-Ig captured on anti-human Fc, antigen injected. A digest of the protocol:
(§2)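 Antibodies or DVD-Ig molecules (1 μg/ml) were captured on an anti-human Fc CM5 surface, with antigen injected in solution and responses referenced to the capture-only surface. Rate constants came from a global 1:1 Langmuir fit, and KD = koff/kon.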

Test [4] addresses T2, PDGF-BB (human, UniProt P01127 82-190, limits assumed).
T2 construct: also called human PDGF-BB; hPDGF-BB
The description is as above. The method in brief:
as §2

PDGF-BB (UniProt P01127 82-190), sequence (P01127 82-190): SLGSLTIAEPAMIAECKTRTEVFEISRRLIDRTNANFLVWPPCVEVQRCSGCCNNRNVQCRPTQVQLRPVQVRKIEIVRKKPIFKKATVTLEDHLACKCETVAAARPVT
T2 sequence (P01127 82-190 limits assumed): as the sequence (P01127 82-190) above

B1: 9E8.4-SS-4G8.3 (PR-1563990) (bispecific antibody, human IgG1, kappa, L234A L235A)
heavy: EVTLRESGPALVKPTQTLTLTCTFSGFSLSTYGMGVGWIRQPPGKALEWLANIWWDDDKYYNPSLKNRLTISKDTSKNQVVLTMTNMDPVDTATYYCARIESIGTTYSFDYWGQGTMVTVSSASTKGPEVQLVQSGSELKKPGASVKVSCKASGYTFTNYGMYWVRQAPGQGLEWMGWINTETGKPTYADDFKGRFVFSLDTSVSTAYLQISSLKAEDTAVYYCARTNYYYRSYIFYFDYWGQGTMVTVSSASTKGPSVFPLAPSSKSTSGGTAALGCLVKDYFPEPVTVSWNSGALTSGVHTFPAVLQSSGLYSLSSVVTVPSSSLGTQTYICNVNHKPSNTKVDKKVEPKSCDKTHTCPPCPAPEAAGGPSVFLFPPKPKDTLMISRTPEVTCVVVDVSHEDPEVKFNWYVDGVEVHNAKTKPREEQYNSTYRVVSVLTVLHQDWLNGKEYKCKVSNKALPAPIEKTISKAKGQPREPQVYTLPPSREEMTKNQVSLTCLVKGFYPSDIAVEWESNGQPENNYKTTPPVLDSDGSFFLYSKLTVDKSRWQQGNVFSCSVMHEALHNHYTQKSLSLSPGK
light: EFVLTQSPGTLSLSPGERATLSCERSSGDIGDSYVSWYQQKPGQAPRLVIYADDQRPSGIPDRFSGSGSGTDFTLTISRLEPEDFAVYYCQSYDINIDIVFGGGTKVEIKGTVAAPDTVLTQSPATLSLSPGERATLSCRASESVSTHMHWYQQKPGQAPRLLIYGASNLESGVPARFSGSGSGTDFTLTISSLEPEDFAVYFCQQSWNDPFTFGQGTKLEIKRTVAAPSVFIFPPSDEQLKSGTASVVCLLNNFYPREAKVQWKVDNALQSGNSQESVTEQDSKDSTYSLSSTLTLSKADYEKHKVYACEVTHQGLSSPVTKSFNRGEC
notes: DVD-Ig; outer hBDI-9E8.4 (PDGF), linkers HG-short/LK-short, inner hBDB-4G8.3 (VEGF); human IgG1 L234A, L235A / kappa
One may read the Kd as the free concentration of one partner at which half of the binding sites on the other are occupied at equilibrium, for simple one-to-one binding. Usually kon stands for the rate constant with which the complex forms. Read a high kon as fast association. In test [1], B1 registered a Kd of 0.02 nM and a kon of 1e+07 M⁻¹ s⁻¹. Besides, in test [2], the Kd stood at 0.78 nM and the kon stood at 160000 M⁻¹ s⁻¹.

B2: 4G8.5_GS_3E2.1 (PR-1610560) (bispecific antibody, human IgG1, kappa, L234A L235A)
heavy: EIQLVQSGSELKKPGASVKVSCKASGYTFTNYGMYWVRQAPGQGLEYMGWINTETGKPTYADDFKGRFVFSLDTSVSTAYLQISSLKAEDTAVYFCARTNYYYRSYIFYFDYWGQGTMVTVSSGGGGSGGGGSEVQLVQSGAEVKKPGSSVKVSCKASGYTFTESYMYWVKQAPGQGLELIGRIDPEDGSTDYVEKFKNKATLTADKSTSTAYMELSSLRSEDTAVYFCARFGARSYFYPMDAWGQGTTVTVSSASTKGPSVFPLAPSSKSTSGGTAALGCLVKDYFPEPVTVSWNSGALTSGVHTFPAVLQSSGLYSLSSVVTVPSSSLGTQTYICNVNHKPSNTKVDKKVEPKSCDKTHTCPPCPAPEAAGGPSVFLFPPKPKDTLMISRTPEVTCVVVDVSHEDPEVKFNWYVDGVEVHNAKTKPREEQYNSTYRVVSVLTVLHQDWLNGKEYKCKVSNKALPAPIEKTISKAKGQPREPQVYTLPPSREEMTKNQVSLTCLVKGFYPSDIAVEWESNGQPENNYKTTPPVLDSDGSFFLYSKLTVDKSRWQQGNVFSCSVMHEALHNAYTQKSLSLSPGK
light: ATQLTQSPSLSASVGDRVTITCRASESVSTHMHWYQQKPGKQPKLLIYGASNLESGVPSRFSGSGSGTDFTLTISSLQPEDFATYFCQQSWNDPFTFGQGTKLEIKGGSGGGGSGGETVLTQSPATLSLSPGERATLSCRASESVSTLMHWYQQKPGQQPRLLIYGASNLESGVPARFSGSGSGTDFTLTISSLEPEDFAVYFCQQSWNDPWTFGGGTKVEIKRTVAAPSVFIFPPSDEQLKSGTASVVCLLNNFYPREAKVQWKVDNALQSGNSQESVTEQDSKDSTYSLSSTLTLSKADYEKHKVYACEVTHQGLSSPVTKSFNRGEC
notes: DVD-Ig: outer hBDB-4G8.5 (VEGF), inner hBFU-3E2.1 (PDGF), linkers GS-H10/GS-L10(dR); Human IgG1 L234A, L235A, H435A with kappa
In test [3], B2 had a Kd of 0.0087 nM and a kon of 4.8e+06 M⁻¹ s⁻¹. In addition, in test [4], the Kd is 0.013 nM and the kon came to 4.1e+07 M⁻¹ s⁻¹.

B3: 9E8.4-SL-4G8.3 (PR-1563998) (bispecific antibody, human IgG1, kappa, L234A L235A)
heavy: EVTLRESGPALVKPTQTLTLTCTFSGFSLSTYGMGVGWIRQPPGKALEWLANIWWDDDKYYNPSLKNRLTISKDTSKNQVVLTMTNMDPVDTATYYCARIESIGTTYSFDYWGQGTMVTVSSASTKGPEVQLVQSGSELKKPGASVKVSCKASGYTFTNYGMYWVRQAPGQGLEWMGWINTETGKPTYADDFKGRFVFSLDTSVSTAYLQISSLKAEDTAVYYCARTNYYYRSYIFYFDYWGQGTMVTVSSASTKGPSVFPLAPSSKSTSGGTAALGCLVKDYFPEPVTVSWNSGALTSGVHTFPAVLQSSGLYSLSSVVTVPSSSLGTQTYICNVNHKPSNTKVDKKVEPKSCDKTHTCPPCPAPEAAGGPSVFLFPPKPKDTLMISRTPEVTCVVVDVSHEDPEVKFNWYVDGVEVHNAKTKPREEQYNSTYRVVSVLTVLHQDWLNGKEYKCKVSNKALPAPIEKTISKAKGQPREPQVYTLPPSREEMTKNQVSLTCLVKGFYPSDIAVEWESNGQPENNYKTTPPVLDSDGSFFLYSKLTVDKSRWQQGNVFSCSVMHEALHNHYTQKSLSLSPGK
light: EFVLTQSPGTLSLSPGERATLSCERSSGDIGDSYVSWYQQKPGQAPRLVIYADDQRPSGIPDRFSGSGSGTDFTLTISRLEPEDFAVYYCQSYDINIDIVFGGGTKVEIKGTVAAPSVFIFPPDTVLTQSPATLSLSPGERATLSCRASESVSTHMHWYQQKPGQAPRLLIYGASNLESGVPARFSGSGSGTDFTLTISSLEPEDFAVYFCQQSWNDPFTFGQGTKLEIKRTVAAPSVFIFPPSDEQLKSGTASVVCLLNNFYPREAKVQWKVDNALQSGNSQESVTEQDSKDSTYSLSSTLTLSKADYEKHKVYACEVTHQGLSSPVTKSFNRGEC
notes: DVD-Ig; outer hBDI-9E8.4 (PDGF), linkers HG-short/LK-long, inner hBDB-4G8.3 (VEGF); human IgG1 L234A, L235A / kappa
In test [1], B3 yielded a Kd of 0.019 nM and a kon of 1e+07 M⁻¹ s⁻¹. In test [2], the Kd turned out to be 0.12 nM and the kon turned out to be 700000 M⁻¹ s⁻¹.

B4: 9E8.4-GS-4G8.3 (PR-1563988) (bispecific antibody, human IgG1, kappa, L234A L235A)
heavy: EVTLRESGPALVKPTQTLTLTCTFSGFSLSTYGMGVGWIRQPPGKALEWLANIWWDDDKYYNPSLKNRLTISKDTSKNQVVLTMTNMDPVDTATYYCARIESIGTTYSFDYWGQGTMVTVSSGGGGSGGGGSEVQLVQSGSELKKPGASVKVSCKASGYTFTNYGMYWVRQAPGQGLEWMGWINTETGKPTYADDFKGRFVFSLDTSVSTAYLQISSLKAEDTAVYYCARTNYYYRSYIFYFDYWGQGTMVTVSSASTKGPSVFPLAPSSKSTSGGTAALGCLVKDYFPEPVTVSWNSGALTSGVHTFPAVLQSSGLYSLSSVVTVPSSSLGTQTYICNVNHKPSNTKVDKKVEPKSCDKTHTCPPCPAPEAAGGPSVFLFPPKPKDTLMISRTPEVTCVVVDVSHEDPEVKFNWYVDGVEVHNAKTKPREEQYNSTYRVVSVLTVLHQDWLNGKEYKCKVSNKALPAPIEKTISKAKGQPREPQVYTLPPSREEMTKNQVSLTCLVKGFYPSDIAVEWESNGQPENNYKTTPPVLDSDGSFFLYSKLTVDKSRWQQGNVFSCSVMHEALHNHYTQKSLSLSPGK
light: EFVLTQSPGTLSLSPGERATLSCERSSGDIGDSYVSWYQQKPGQAPRLVIYADDQRPSGIPDRFSGSGSGTDFTLTISRLEPEDFAVYYCQSYDINIDIVFGGGTKVEIKGGGSGGGGSGDTVLTQSPATLSLSPGERATLSCRASESVSTHMHWYQQKPGQAPRLLIYGASNLESGVPARFSGSGSGTDFTLTISSLEPEDFAVYFCQQSWNDPFTFGQGTKLEIKRTVAAPSVFIFPPSDEQLKSGTASVVCLLNNFYPREAKVQWKVDNALQSGNSQESVTEQDSKDSTYSLSSTLTLSKADYEKHKVYACEVTHQGLSSPVTKSFNRGEC
notes: DVD-Ig; outer hBDI-9E8.4 (PDGF), linkers GS-H10/GS-L10, inner hBDB-4G8.3 (VEGF); human IgG1 L234A, L235A / kappa
Turning to B4, the Kd in test [1] came out at 0.02 nM; in test [2] it was 0.29 nM. Also, the on-rate constant (kon) in test [1] turned out to be 1e+07 M⁻¹ s⁻¹; in test [2] it was 220000 M⁻¹ s⁻¹.
